In patent US20120316071A1 (published 2012):

T1: rHuman Erythropoietin R/Fc Chimera, CF (R&D Systems Cat#963-ER) (human, UniProt P19235 25-250)
T1 construct: Bought recombinant protein; also called EPO R; EPO R/Fc; Fc part of the bought chimera not given
T1 sequence (looked up): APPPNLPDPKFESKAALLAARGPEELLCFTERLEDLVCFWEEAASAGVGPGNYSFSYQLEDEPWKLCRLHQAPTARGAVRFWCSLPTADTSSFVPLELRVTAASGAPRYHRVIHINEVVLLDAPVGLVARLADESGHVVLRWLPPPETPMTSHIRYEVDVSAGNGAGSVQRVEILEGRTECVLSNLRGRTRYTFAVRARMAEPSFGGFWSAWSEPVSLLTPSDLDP

T2: rHuman Erythropoietin R/Fc Chimera, CF (R&D Systems Cat#963-ER) (human, UniProt P19235 25-250)
T2 construct: Bought recombinant protein; also called EPO R; EPO R/Fc; Fc part of the bought chimera not given
T2 sequence (looked up): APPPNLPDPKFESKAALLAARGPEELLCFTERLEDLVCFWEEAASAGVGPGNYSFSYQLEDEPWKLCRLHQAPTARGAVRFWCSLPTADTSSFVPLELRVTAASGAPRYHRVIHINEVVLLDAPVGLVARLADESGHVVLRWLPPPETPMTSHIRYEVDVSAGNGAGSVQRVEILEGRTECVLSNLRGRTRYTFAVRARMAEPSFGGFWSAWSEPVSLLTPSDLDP


Experiments:
[1] = molecular target: T1, rHuman Erythropoietin R/Fc Chimera, CF …; test: ECL multispot (MSD) assay, antigen spotted on plate, Fab at 0.01 µM
[2] = molecular target: T3, rHuman CD44/Fc Chimera, CF (R&D Systems Cat#3660-CD) (human, UniProt P16070 21-220); test: as above
T3 construct: Bought recombinant protein; Fc part of the bought chimera not given

[3] = molecular target: T4, Recombinant Human DLL4 (R&D Systems Cat#1506-D4/CF) (human, UniProt Q9NR61 27-524); test: as above
T4 construct: Bought recombinant protein; also called delta-like protein 4; rHuman DLL4

[4] = molecular target: T5, rHuman ErbB2/Fc Chimera, CF (R&D Systems Cat#1129-ER) (human, UniProt P04626 23-652); test: as above
T5 construct: Bought recombinant protein; also called human epidermal growth factor 2 receptor; Fc part of the bought chimera not given

[5] = molecular target: T6, rHuman EGF R/Fc Chimera, CF (R&D Systems Cat#344-ER) (human, UniProt P00533 25-645); test: as above
T6 construct: Bought recombinant protein; also called epidermal growth factor receptor; Fc part of the bought chimera not given

[6] = molecular target: T7, rHuman P-Cadherin/Fc Chimera, CF (R&D Systems Cat#861-PC) (human, UniProt P22223 108-654); test: as above
T7 construct: Bought recombinant protein; Fc part of the bought chimera not given

[7] = molecular target: T8, rHuman IGF-1 sR, CF (R&D Systems Cat#391-GR) (human, UniProt P08069 31-932); test: as above
T8 construct: Bought recombinant soluble receptor; also called insulin-like growth factor-1 soluble receptor

[8] = molecular target: T9, rHuman HGF R/c-MET/Fc Chimera, CF (R&D Systems Cat#358-MT/CF) (human, UniProt P08581 25-932); test: as above
T9 construct: Bought recombinant protein; also called HGF R/Fc; hepatocyte growth factor receptor; Fc part of the bought chimera not given

[9] = molecular target: T10, rHuman Notch-1/Fc Chimera, CF (R&D Systems Cat#3647-TK) (human, UniProt P46531 19-526); test: as above
T10 construct: Bought recombinant protein; Fc part of the bought chimera not given

[10] = molecular target: T11, Recombinant Human DLL4 (delta-like protein 4) (human, UniProt Q9NR61 27-524); test: ECL Multispot (MSD) binding assay, DLL4 spotted on plate, 10 nM Fab
T11 construct: Bought recombinant protein (R&D Systems Cat#1506-D4/CF); also called rHuman DLL4; Delta-like 4

[11] = molecular target: T12, Recombinant Human DLL4 (delta-like protein 4) (human, UniProt Q9NR61 27-524); test: ECL Multispot (MSD) binding assay, DLL4 spotted on plate, 10 nM Fab; ECL signal over blank spot
T12 construct: Bought recombinant protein (R&D Systems Cat#1506-D4/CF), spotted on the MSD plate; also called rHuman DLL4; Delta-like 4

[12] = molecular target: T2, rHuman Erythropoietin R/Fc Chimera, CF …; test: ECL multispot (MSD) assay, antigen spotted on plate, 20 nM Fab;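 note: purified Fab bound to plate-spotted antigen for 1 h at 20 °C, labelled detection antibody added, ratio of antigen ECL signal to same-well blank, ratio ≥4 counted as binder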
[13] = molecular target: T13, rHuman ErbB2/Fc Chimera, CF (R&D Systems Cat#1129-ER) (human, UniProt P04626 23-652); test: as above
T13 construct: Bought recombinant protein; also called human epidermal growth factor 2 receptor; Fc part of the bought chimera not given

[14] = molecular target: T14, rHuman IGF-1 sR, CF (R&D Systems Cat#391-GR) (human, UniProt P08069 31-932); test: as above
T14 construct: Bought soluble receptor; also called insulin-like growth factor-1 soluble receptor

[15] = molecular target: T15, rHuman CD44/Fc Chimera, CF (R&D Systems Cat#3660-CD) (human, UniProt P16070 21-220); test: as above
T15 construct: Bought recombinant protein; Fc part of the bought chimera not given

[16] = molecular target: T16, Recombinant Human DLL4 (R&D Systems Cat#1506-D4/CF) (human, UniProt Q9NR61 27-524); test: as above
T16 construct: Bought recombinant protein; also called delta-like protein 4; rHuman DLL4

[17] = molecular target: T17, rHuman P-Cadherin/Fc Chimera, CF (R&D Systems Cat#861-PC) (human, UniProt P22223 108-654); test: as above
T17 construct: Bought recombinant protein; Fc part of the bought chimera not given

[18] = molecular target: T18, rHuman EGF R/Fc Chimera, CF (R&D Systems Cat#344-ER) (human, UniProt P00533 25-645); test: as above
T18 construct: Bought recombinant protein; also called epidermal growth factor receptor; Fc part of the bought chimera not given

[19] = molecular target: T19, rHuman Notch-1/Fc Chimera, CF (R&D Systems Cat#3647-TK) (human, UniProt P46531 19-526); test: as above
T19 construct: Bought recombinant protein; Fc part of the bought chimera not given

T9 sequence (P08581 25-932, change not shown): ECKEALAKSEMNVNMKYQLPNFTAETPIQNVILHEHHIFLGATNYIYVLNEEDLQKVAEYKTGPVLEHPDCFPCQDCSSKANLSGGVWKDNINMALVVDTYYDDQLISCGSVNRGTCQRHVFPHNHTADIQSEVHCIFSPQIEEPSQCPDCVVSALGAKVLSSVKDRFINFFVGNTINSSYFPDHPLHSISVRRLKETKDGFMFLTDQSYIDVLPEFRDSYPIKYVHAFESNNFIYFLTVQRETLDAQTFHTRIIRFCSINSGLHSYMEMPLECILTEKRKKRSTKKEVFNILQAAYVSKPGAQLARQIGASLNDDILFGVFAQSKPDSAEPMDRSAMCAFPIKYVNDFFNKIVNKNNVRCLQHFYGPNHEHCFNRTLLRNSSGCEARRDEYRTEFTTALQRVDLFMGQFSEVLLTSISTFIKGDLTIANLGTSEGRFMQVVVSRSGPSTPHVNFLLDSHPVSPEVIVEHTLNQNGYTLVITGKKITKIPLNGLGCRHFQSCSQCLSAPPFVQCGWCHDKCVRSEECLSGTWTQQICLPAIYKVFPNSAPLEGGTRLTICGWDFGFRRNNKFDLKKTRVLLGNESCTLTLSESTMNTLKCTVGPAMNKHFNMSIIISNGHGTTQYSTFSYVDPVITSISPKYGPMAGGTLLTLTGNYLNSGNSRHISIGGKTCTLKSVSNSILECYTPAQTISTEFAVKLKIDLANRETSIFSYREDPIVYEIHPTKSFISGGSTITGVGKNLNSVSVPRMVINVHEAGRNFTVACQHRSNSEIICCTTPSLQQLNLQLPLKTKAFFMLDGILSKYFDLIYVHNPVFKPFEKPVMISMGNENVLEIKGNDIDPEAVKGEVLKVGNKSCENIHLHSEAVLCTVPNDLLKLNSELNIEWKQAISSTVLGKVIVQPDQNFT

ECL signal/blank ratio (read-out not given) [13]	ECL signal/blank ratio (read-out not given) [14]	ECL signal/blank ratio (read-out not given) [15]	ECL signal/blank ratio (read-out not given) [16]	ECL signal/blank ratio (read-out not given) [17]	ECL signal/blank ratio (read-out not given) [18]	Binder	other results
11.2	1.6	2	2.6	20.9	7.1	Fab VH3-23_IGHD2-21*01>3_IGHJ6*01 H100E/S108P/Y113G A61T & V2-13_IGLJ2*01 (Fab, V domains shown, Tested as a Fab made in E. coli; also called EPG A61T) VH: EVQLLESGGGLVQPGGSLRLSCAASGFTFSSYAMSWVRQAPGKGLEWVSSISGSGGSTYYTDSVKGRFTISRDNSKNTLYLQMNSLRAEDTAVYYCAKEEIVVVIAIPYYYYGYGMDVWGQGTLVTVSS VL: SSELTQDPAVSVALGQTVRITCQGDSLRSYYASWYQQKPGQAPVLVIYGKNNRPSGIPDRFSGSSSGNTASLTITGAQAEDEADYYCNSRDSSGNHLVVFGGGTKLTVL	ECL signal/blank ratio (read-out not given) [19]: 2.9
11.5	1.2	1.5	2.3	25.3	6.2	Fab VH3-23_IGHD2-21*01>3_IGHJ6*01 H100E/S108P/Y113G Y60A & V2-13_IGLJ2*01 (Fab, V domains shown, Tested as a Fab made in E. coli; also called EPG Y60A) VH: EVQLLESGGGLVQPGGSLRLSCAASGFTFSSYAMSWVRQAPGKGLEWVSSISGSGGSTYAADSVKGRFTISRDNSKNTLYLQMNSLRAEDTAVYYCAKEEIVVVIAIPYYYYGYGMDVWGQGTLVTVSS VL: SSELTQDPAVSVALGQTVRITCQGDSLRSYYASWYQQKPGQAPVLVIYGKNNRPSGIPDRFSGSSSGNTASLTITGAQAEDEADYYCNSRDSSGNHLVVFGGGTKLTVL	ECL signal/blank ratio (read-out not given) [19]: 2.6
21.7	1.4	2	2.4	45.8	11.6	Fab VH3-23_IGHD2-21*01>3_IGHJ6*01 H100E/S108P/Y113G D62A & V2-13_IGLJ2*01 (Fab, V domains shown, Tested as a Fab made in E. coli; also called EPG D62A) VH: EVQLLESGGGLVQPGGSLRLSCAASGFTFSSYAMSWVRQAPGKGLEWVSSISGSGGSTYYAASVKGRFTISRDNSKNTLYLQMNSLRAEDTAVYYCAKEEIVVVIAIPYYYYGYGMDVWGQGTLVTVSS VL: SSELTQDPAVSVALGQTVRITCQGDSLRSYYASWYQQKPGQAPVLVIYGKNNRPSGIPDRFSGSSSGNTASLTITGAQAEDEADYYCNSRDSSGNHLVVFGGGTKLTVL	ECL signal/blank ratio (read-out not given) [12]: 244

The remaining lines, values behind:

Binder	ECL signal/blank ratio (read-out not given) [13]	ECL signal/blank ratio (read-out not given) [14]	ECL signal/blank ratio (read-out not given) [15]	ECL signal/blank ratio (read-out not given) [16]	ECL signal/blank ratio (read-out not given) [17]	ECL signal/blank ratio (read-out not given) [18]	other results
Fab VH1-46_IGHD6-6*01_IGHJ1*01 & L6_IGKJ1*01 (Fab, V domains shown, Tested as a Fab expressed in E. coli; The heavy chain variable region was cloned into Plasmid A (CH1, His6 and Flag tags) and the kappa light chain variable region into Plasmid C (kappa CL); also called Parent; parental) VH: QVQLVQSGAEVKKPGASVKVSCKASGYTFTSYYMHWVRQAPGQGLEWMGIINPSGGSTSYAQKFQGRVTMTRDTSTSTVYMELSSLRSEDTAVYYCAREEYSSSSAEYFQHWGQGTLVTVSS VL: not shown							ECL signal/noise ratio [1]: 1; ECL signal/noise ratio [2]: 1.1; ECL signal/noise ratio [3]: 4.9; ECL signal/noise ratio [4]: 1; ECL signal/noise ratio [5]: 0.9; ECL signal/noise ratio [6]: 1; ECL signal/noise ratio [7]: 0.8; ECL signal/noise ratio [8]: 0.9; ECL signal/noise ratio [9]: 0.5
Fab VH1-46_IGHD6-6*01_IGHJ1*01 S102A/S103P/S104F A106E & L6_IGKJ1*01 (Fab, V domains shown, Tested as Fab; also called APF A106E) VH: QVQLVQSGAEVKKPGASVKVSCKASGYTFTSYYMHWVRQAPGQGLEWMGIINPSGGSTSYAQKFQGRVTMTRDTSTSTVYMELSSLRSEDTAVYYCAREEYAPFSEEYFQHWGQGTLVTVSS VL: not shown							Signal/Noise [10]: 4.3
Fab VH1-46_IGHD6-6*01_IGHJ1*01 S102A/S103P/S104F H111S & L6_IGKJ1*01 (Fab, V domains shown, Fab format is as for m1 (CH1 with His6/Flag from Plasmid A, kappa CL from Plasmid C); also called APF H111S) VH: QVQLVQSGAEVKKPGASVKVSCKASGYTFTSYYMHWVRQAPGQGLEWMGIINPSGGSTSYAQKFQGRVTMTRDTSTSTVYMELSSLRSEDTAVYYCAREEYAPFSAEYFQSWGQGTLVTVSS VL: not shown							Signal/Noise [11]: 24
Fab VH1-46_IGHD6-6*01_IGHJ1*01 S102A/S103P/S104F G55W & L6_IGKJ1*01 (Fab, V domains shown, Tested as Fab; also called APF G55W) VH: QVQLVQSGAEVKKPGASVKVSCKASGYTFTSYYMHWVRQAPGQGLEWMGIINPSWGSTSYAQKFQGRVTMTRDTSTSTVYMELSSLRSEDTAVYYCAREEYAPFSAEYFQHWGQGTLVTVSS VL: not shown							Signal/Noise [10]: 8
Fab VH1-46_IGHD6-6*01_IGHJ1*01 S102A/S103P/S104F/H111F & L6_IGKJ1*01 (Fab, V domains shown, Fab format is as for m1 (CH1 with His6/Flag from Plasmid A, kappa CL from Plasmid C); also called APFF; H:APFF & L:wt) VH: QVQLVQSGAEVKKPGASVKVSCKASGYTFTSYYMHWVRQAPGQGLEWMGIINPSGGSTSYAQKFQGRVTMTRDTSTSTVYMELSSLRSEDTAVYYCAREEYAPFSAEYFQFWGQGTLVTVSS VL: not shown							Signal/Noise [11]: 42.5
Fab VH3-23_IGHD2-21*01>3_IGHJ6*01 H100E/S108P/Y113G T58A & V2-13_IGLJ2*01 (Fab, V domains shown, Tested as a Fab made in E. coli; also called EPG T58A) VH: EVQLLESGGGLVQPGGSLRLSCAASGFTFSSYAMSWVRQAPGKGLEWVSSISGSGGSAYYADSVKGRFTISRDNSKNTLYLQMNSLRAEDTAVYYCAKEEIVVVIAIPYYYYGYGMDVWGQGTLVTVSS VL: SSELTQDPAVSVALGQTVRITCQGDSLRSYYASWYQQKPGQAPVLVIYGKNNRPSGIPDRFSGSSSGNTASLTITGAQAEDEADYYCNSRDSSGNHLVVFGGGTKLTVL	15.9	1.2	1.5	2.3	36.9	9.6	ECL signal/blank ratio (read-out not given) [12]: 158
